Measurements as given in patent publication US20050202434.

Biological target: T1, metallo-beta-lactamase (beta-lactamase II) 5/B/6 (Bacillus cereus) (UniProt P14488)
T1 sequence: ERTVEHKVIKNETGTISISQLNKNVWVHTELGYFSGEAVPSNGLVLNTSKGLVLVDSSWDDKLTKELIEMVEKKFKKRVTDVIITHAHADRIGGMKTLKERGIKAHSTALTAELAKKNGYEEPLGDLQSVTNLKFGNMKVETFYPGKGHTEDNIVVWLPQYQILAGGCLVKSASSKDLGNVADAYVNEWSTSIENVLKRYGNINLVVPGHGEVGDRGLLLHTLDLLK
Experiment: inhibition

Sequence	activity (% control activity)
ANCNANNNTTNNNTNGNNGNNCATNNNNAA [round 16 SELEX pool (consensus 30N)]	47
GCGCCATATGCGCGCGNNNNNNNNNNNNNNNNNNNNNNNNNNNNNNCGCGCGGAGCTCGCG [initial random 61-mer pool]	100
